# Data reported in the nanobody polyreactivity screen of Harvey et al. (2022).
# Test: yeast display, Sf9 membrane polyspecificity reagent, FACS + sequencing; frameworks hold sequencing errors
# Summary of the method: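 Galactose-induced (36–48 hours) yeast carrying a synthetic nanobody display library were exposed to 10% biotinylated, detergent-solubilized Sf9 membrane reagent at 4 °C for 1 hour. FACS followed streptavidin microbead enrichment, using low and high (top ~1%) gates for expression (anti-HA) and reagent binding (streptavidin). Colony PCR, MiSeq 2 × 250 sequencing and CDR-length filtering followed. Labels for polyreactivity reflect the gate of origin.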
row,Sequence,polyreactivity (PSR sort gate)
1,QVQLVESGGGLVQAGGSLRLSCAASGRIFAFYARGSSRQAPGKERQLVAVISKSGGTTYYADSVKGRFTISRDNAKNTVYLQMNSLKPEDTAVYYCNKRVFYRHGYSYNYWGQGTQVTVSS,high polyreactivity
2,QVQLVESGGGLVQAGGSLRLSCAASGSTFSANAMGWYRQAPGKERELVAAITYRGGNTYYADSVKGRFTISRDNAKNTVYLQMNSLKPEETAVYYCNRDLRVRYRRLKYGYWGQGTQVTVSS,low polyreactivity
3,QVQLVESGGGLVQAGGSLRLSCASSRNIFYLYAMGWYRQAPGKEREFSTSYADSEKGRFTISRDNAKNTVYLQMNSLKPEDTAVYYCAAYNSRGPYYYLFDYWGQGSQVTVSS,low polyreactivity
4,QVHLVESGGGLVQAGGSLRLSCAASGFTFIRYAMGWYRQAPGKEREFVAAISWRVGITYYADSVKGRFTISRDNAKNTVYLQMNSLKPEDTAVYYCARDYRNPPFAYEYWGQGTQVTVSS,low polyreactivity
5,QVQLVESGGGLVQAGGSLRLSCAASGLTFNTYAMGWYRQAPGKERELVAAITKGGGRTYYADSVKGRFTISRDNAKNTVYLQMNSLKPEDTAVYYCAAYGYIYRVGYANGVVTSQDDYWGQGTQVTVSS,high polyreactivity
6,QVQLVESGGGLVQAGGSLRLSCAASGSNFKSNAMGLYRPAPGKERELVAAINRSGAGTYYADSVKGRFTISRDNAKNTVYLQMNSLKPEDTAVYYCAAQSYSRRYDYWGQGTQVTVSS,high polyreactivity
7,QVQLVESVGGLVQAGGSLRLSCAASGFIFGSNAIGWYRQAPGKERELVAAITYSGASTYYADSVKGRFTISRDNAKNTVYLQMNRLKPEDTAVYYCATRYSVFVSGRFNYWGQGTQVTVSS,low polyreactivity
8,QVQLVESGGGLVQAGGSLRLSCAASGRTFRYYAMGWYRQAPGKERELVASISSSGSTNYADSVKGRFTISRDNAKNTVYLQMNSLKPEDTAVYYCAAESRYPFIYEYWGQGTQVTVSS,low polyreactivity
9,QVQLVESGGGLVQAGGSLRLSCAASGSIFKYNAMGWYRQAPGKERQLVAAISSSGGYTSYADSVKGRFTISRDNAKNTVYLQMNSLKPEDTAVYYCNAPYLIYKKGRYDYWGQGTQVTVSS,high polyreactivity
10,QVQLVESGGGLVQAGGSLRLSCAASGYTLSLNAMGWYRQAPGKEREFVARISGRGGSTYYADSVKGRFTISRDNAKNTVYLQMNSLKPEDTAVYYCAATWWPWGTDNRGMYYWGQGTQVTVSS,high polyreactivity
11,QVQLVESGGGLVQAGGSLRLSCGASGGIFYLYAMGWSRQAPGKERELVAAITWSADSTYYADSVKGRFTISRDNAKNTVYLQMNSLKPEDTAVYYCNADVAWQYGKGWSWDIDDYWRQGTQVTVSS,low polyreactivity
12,QVQLVESGRGLVQAGGSLRLSCAASGRTFWYYAMGWYRQAPGKERELDARISSSGGSTYADSVKGRFTISRDNAKNTVYLHMNSLKPEDTAVYYCAADRHYWKADPSQGYQHYYWGQGTQVTVSS,high polyreactivity
13,QVQLVESGGGLVQAGGSLRLSCAASGSIFGPYSMGWYRQAPGKERELVAAISWRGGTTRYADSVKGRFTISRDNAKNTVYLQMNSLKPEDTAVYYCNRTVYSKTQYDYDYWGQGTQVTVSS,high polyreactivity
14,QVQLVESGGGLVQAGGILRLSCAASGRTFVLNAMGRYRQAPGKERELVAAITSGGSTYYADSVKGRFTISRDNAKNTVYLQMNMLKPEDTAVYYCAVTYKGDSSWPGDYWGQCTQVTVSS,low polyreactivity
15,QVQLVESGGGLVQAGGSLRLSCAASGFIFVYYAMVWYRQAPGKERELVAAITLRGGSTNYADSVKGRFTISRDNAKNTVYLQMNSRKPEDTAVYYCAAYSVWGGSYLALDYWGQGTQVTVSS,low polyreactivity
16,QVQLVESGGGLVQAGGSLRLSCAASGFIFRSYAMGWYRQAPGKERELVAAISRSGGSTYYADSVKGRFTISRDNAKNTVYLQMNSLKPEDTAVYYCATDGGRSTARGYGHWGQGTQVTVSS,high polyreactivity
17,QVQLVESGGGLVQAGGSLRLSCAASGRIFRANTMGWYRQAPGKERELVAVITASGGSTYYADSVKGRFTISRDNAKNTVYLQMNSLKPEDTAVYYCNRVPRTRLSGHDYWGQGTQVTVSS,high polyreactivity
18,QVQLEESGGGLVQAGGSLRLTCAASGRIFYRNSMGWYRQATGKERELVATISGRGGSTYYADSVKGRFTISRDNAKNTDYLQMNSLKPEDTAVYYCAVRNHGSVRWTGESWGQGTQVTVSS,high polyreactivity
19,QVQLVESGGGLVQAGGSLRLSCAASGSTFKYNTMGWYRQAPGKERELVATISTGGSTYYADSVKGRFTISRDNAKNTVYLQMNSLKPEDTAVYYCAADGARRNTYRYDYWGQGTQVTVSS,low polyreactivity
20,QVQLVESGGGLVPAGGSLRLSCAASGRIFRGYAMGWYRQAHGKEREFVAAITKNGGTTYYADSVKGRFTISRDNAKNTVYLQMNSLKPEDTAVYYCNKDGYPWPPNLDYWGQGTQVTVSS,low polyreactivity
21,QVQLVESGGGLVQAGGSLSLSCAASGFTFAFYAMGWYRQAPGKERELVAAISWDGVTTYYADSVKGRFTISRDNAKNTVYLQMNSLKPEDTAVYYCAADYPDYAGSFWPSGMYYWGQGTQVTVSS,low polyreactivity
22,QVQLVESGGGLVQAGGSLRLSCAASGSIFWVNGMGWYRQAPGKERELVAAITWSGGSTYYADSVKGRFTISRDNAKNTVYLQMNSLKPEDTAVYYCAAYCQYYLWDGYGYWGQGTQVTVSS,low polyreactivity

row,Sequence,polyreactivity (PSR sort gate)
1,QVQLVESGGGLVQAGGSLRLSCAASGFIFGVNAMGWYRQAPGKEPELVAAINGGASTYYADSVKGRFTISRDNAKNTVYLQMNSLKPEDTAVYYCAAVFYDYRGRLYPNFGLYYYWGQGTQVTVSS,high polyreactivity
2,QVQLVESGGGLVQAGGSLRLSCAASGRIFNRYGMGWYRQAPGKERELVAAITWRGGNTYYADSVKGRFTISRDNAKNTVYLQMNSLKPEDTAVYYCAADGGYSAYFGAYDYWGQGTQVTVSS,high polyreactivity
3,QVQLVESGGGLVQAGGSLRLSCAASGSTFYRNAMGWYRQAPGKERELVAAITSRGTRTFYADSVKGRFTISRDNAKNTVYLQMNSLKPEDTAVYYCAVTYQAEDEYDYWGQGTQVTVSS,low polyreactivity
4,QVQLVESGGGLVQAGGSLRLSCAASGTYYLYAMGWYRQAPRKERELVAAISGSGSTNYADSVKGRFTISRDNAKNTVYLQMNSLKPEDTAVYYCAAYQRYVSVTGARYEYDYWGQGTQVTVSS,low polyreactivity
5,QVQLVESGGGLVQAGGSLRLSCAASGILSLYTMGCSIQAPGKERELVAAISFRGGNTYYADSVKGRFTISRDNAKNTVYLQMNSLKPEDTAVYYCNAVTRPWRRGYDYWGQGTQVTVSS,high polyreactivity
6,QVQLVESGGGLVQAGGSLRISCAASGFTFSQYAMGRYRQAPGKERELVAAISVSGGTTYYADSVKGRFTISRDNAKNTVYLQMNSLKPEDTAVYYCDARTPFSSSPYVNTSGYYYWGQGSQVTVSS,high polyreactivity
7,QDQLVESGGGLVQAGGSLRLSCAASGFTFGYYAMGWYRQAPGKERELVAAISSGSSTYYADSVKGRFTISRDNAKNTVDLQMISLTPEDTAVFYCAATGDNNTPSGYDYWGQGTQVTVSS,high polyreactivity
8,QVQLVESGGGLVQAGGSLRLSCAASGIIFKSYAMGWYRQAPGKERELVAAITKRGGSTYYADSVKGRFTISRDNAKNTVYLQMNSLKPEDSAVYYCAAFAVPYDYWGQGTQVTVSS,high polyreactivity
9,QVQLVESGGGLVQAGGSLRLSCAASGSIFSYYAMGWYRQSPGNERELVAAITWSGGSTNYADSVKGRFTISRDNAKNTVYLQMTSLKPEDTAVYYCAADYWAWGKNEYDYWGQGTQVTVSS,low polyreactivity
10,QVQLLESGGGIVQAGGSHRLRCAASGSIFGTNAMCWYRQATGKERELVAAISLSTGSTYYADSVKGRFTISRDNAKNTVYLQMNSLKPEDTAVYYCAAYYVTPIYYYWGQGTQVTVSS,low polyreactivity
11,QVQLGESGGGLVQAGGSLRLSCAASGSMFYSNARGWYRQAPGTERELVASIRGSGVSTYYADSVKGRFTISRDNAKNTVYLPMNSLKPEDTAVYDCAPRYGRSYFGYYYWGQGTQVTVSS,high polyreactivity
12,QVQLVESGGGLVQAGGSLRLSCAASGNILRFNAMGWYRQAPGKERELVAAISRSGGTTYYADSVKGRFTISRDNAKNTVYLQMNSLKPEDTAVYYCAARSRYGESPGYYWGQGTQVTVSS,high polyreactivity
13,QVQLVESGGGLVQAGGSLRLICAASGSTFNNNAMGWFRQAPGKERELVAAISYTGGSTYYADSVKGRFTISRDNAKNNVYLQMNSLKPEDTAVYYCAADYPHLGGYRYDYWGQGTQVTVSS,high polyreactivity
14,QVQLVESGGGLVQAGGSLRLSCAASGRIFRYYAMGWSRQAPGKERELVAAITSDGRTYYADSVKGRVTISRDNAKNTVYLQMNSLKPEDTAVYYCAADHHSYRYGGYYYWGQGTQVTVAS,low polyreactivity
15,QVQLVESGGGLVQAGGRLRLSCAASGRIFYYYAMGWYRQAPGKERELVAAINRSGGSTYYADSVKGRFTISRDNAKNTVYLQMNSLKPEDTAVYSCASYDYWGQGTQVTVSS,high polyreactivity
16,QVQLVESGGGLVQAGGSLRLSCATSGGIFDSYAMVWYRQAPGKERELVASISWSGGSTYYADSVKGRFTISRDNEKNTVYLQMKSLKPEVTAVYYCAADRPYAGRFWKGYHSALYDYWGQGTQVTVSS,low polyreactivity
17,QVQLVESGGGLVQAGGSLRLSCAASGRIFRQNAMGWYRQAPGKERELVAAISRSGGSTYYADSVKGRFTISRDNAKNTVYLQMNSLNPEDTAVYYCNRDYQSQRTYPRRYDYWGQGTQVTVSS,low polyreactivity
18,QVQLVESGGGLVQAGGSLRLSCAASGRIFRTNTMGWYRQAPGKERELVAAITRGGSTYYADSVKGRFTISRDNAKNTVYLQMNSLKPEDTAVYYCAASRYYNSVHNGGDYWGQGTQVTVSS,high polyreactivity
19,QVQLVESGGGLVQAGGSLRLSCAASGRTFSAYAMGWNRQAPGKEREMVAAISSTGRTKYADSVKGRFTISRDNAKNSVYLQMNSLKPEDTAVYYCAARGYYVSPYTYGYWGQGTQVTVSS,high polyreactivity
20,QVQLVESGGGLVQAGGILRLSCAASGSTFGRYAIGWYRPAPGTERELVAAISRRGGSTYYADSVKWRFTISRDNAKNNVYLQMYSLKPVDTAVYYCAADDVRTSGCHFDYWGDGTQVTVSS,high polyreactivity
21,QVQLVESGGGLVQAGGSLRLSCAASGSIFWVYAMGWYRQAPGKERELVADISRSGGSTYYADSVKGRFTISRDNAKNTVYLQMNSLKPEDTAVYYCAAEYYGQVLFQPYVYQLMYYWGQGTQVTVSS,low polyreactivity
